Article PMC6078440, “Structural and functional analysis of Dickkopf 4 (Dkk4): New insights into Dkk evolution and regulation of Wnt signaling by Dkk and Kremen proteins” (The Journal of Biological Chemistry, 2018)
“And” between values parts separate entries of the source, which are not always exact repeats. Equal values may be shown once. Each block holds one binder with its values, some of them ahead of it.

B3: full-length mature Dkk4 (Dickkopf 4), residues 19-224, His-tagged (natural protein, human, UniProt Q9UBT3 19-224, looked up)
chain: LVLDFNNIRSSADLHGARKGSQCLSDTDCNTRKFCLQPRDEKPFCATCRGLRRRCQRDAMCCPGTLCVNDVCTTMEDATPILERQLDEQDGTHAEGTTGHPVQENQPKRKPSIKKSQGRKGQEGESCLRTFDCGPGLCCARHFWTKICKPVLLEGQVCSRRGHKDTAQAPEIFQRCDCGPGLLCRSQLTSNRQHARLRVCQKIEKL
modifications: uniformly 15N/13C/2H-labelled in the NMR experiments
notes: residues numbered from the N-terminal methionine; also called Dkk4FL

Legend:
[1] = target: the molecule itself; assay: SEC; Superdex 75 10/300 GL, 3 μM Krm1 ECD in 50 mM Na2HPO4, 100 mM NaCl, pH 7.5; apparent masses from a calibration with globular standards; monomer and dimer
[2] = target: B3; assay: BLI; LRP6 E1E2-Fc (200 nM) loaded on AHC biosensors; Dkk4FL 1-1000 nM; 25 mM Na2HPO4, 100 mM NaCl, 0.05% Triton X-100, pH 6.5; steady-state fit to a one-site model; conditions: both partners purified
[3] = target: T1, N-terminal region of Dkk4 including CRD1, residues 19-97 (human, UniProt Q9UBT3 19-97); assay: BLI; LRP6 E1E2-Fc (200 nM) loaded on AHC biosensors; Dkk4N 0.1-100 μM; 25 mM Na2HPO4, 100 mM NaCl, 0.05% Triton X-100, pH 6.5 or 7.5 (not told which for the printed KD); later experiments with 0.1% BSA; steady-state fit to a one-site model; conditions: both partners purified
T1 construct: Dickkopf 4 (Dkk4), human, N-terminal region with the NXI(R/K) motif and CRD1, residues 19-97; residues numbered from the N-terminal methionine; construct details are in the supporting material; also called Dkk4N; isolated Dkk4N region; not shown: His6 (with linker), C-terminal, kept
T1 sequence (looked up): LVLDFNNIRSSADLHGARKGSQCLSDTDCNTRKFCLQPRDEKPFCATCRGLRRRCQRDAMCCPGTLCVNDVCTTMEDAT

[4] = target: T2, Kremen1 extracellular domain Fc fusion protein (human, UniProt Q96MU8 21-392); assay: BLI; Krm1 ECD-Fc loaded from supernatants on AHC biosensors; Dkk2FL or Dkk4FL 1-1000 nM, Dkk4N 0.1-100 μM; 25 mM Na2HPO4, 100 mM NaCl, 0.05% Triton X-100, pH 6.5; steady-state fit to a one-site model; conditions: one partner purified
T2 construct: Kremen1 (Krm1), human, extracellular domain (kringle, WSC and CUB domains); also called Krm1 ECD-Fc; Krm1 ECD; source: expressed, in cell culture medium (supernatants); host in the supporting material
T2 sequence (looked up): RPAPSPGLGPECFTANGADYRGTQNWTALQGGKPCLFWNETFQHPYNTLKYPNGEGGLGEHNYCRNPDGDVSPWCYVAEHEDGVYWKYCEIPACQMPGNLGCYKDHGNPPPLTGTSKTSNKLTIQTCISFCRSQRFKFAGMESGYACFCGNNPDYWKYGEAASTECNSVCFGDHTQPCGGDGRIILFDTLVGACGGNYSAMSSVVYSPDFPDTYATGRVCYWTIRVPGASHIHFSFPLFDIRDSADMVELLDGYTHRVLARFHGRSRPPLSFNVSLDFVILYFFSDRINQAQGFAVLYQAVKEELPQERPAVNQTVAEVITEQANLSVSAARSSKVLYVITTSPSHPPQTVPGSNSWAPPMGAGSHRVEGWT

[5] = target: T3, LRP6 E1E2-Fc (β-propeller domains 1 and 2 of low-density lipoprotein receptor-related protein 6, Fc fusion) (human); assay: BLI; pH 7.5
T3 chain: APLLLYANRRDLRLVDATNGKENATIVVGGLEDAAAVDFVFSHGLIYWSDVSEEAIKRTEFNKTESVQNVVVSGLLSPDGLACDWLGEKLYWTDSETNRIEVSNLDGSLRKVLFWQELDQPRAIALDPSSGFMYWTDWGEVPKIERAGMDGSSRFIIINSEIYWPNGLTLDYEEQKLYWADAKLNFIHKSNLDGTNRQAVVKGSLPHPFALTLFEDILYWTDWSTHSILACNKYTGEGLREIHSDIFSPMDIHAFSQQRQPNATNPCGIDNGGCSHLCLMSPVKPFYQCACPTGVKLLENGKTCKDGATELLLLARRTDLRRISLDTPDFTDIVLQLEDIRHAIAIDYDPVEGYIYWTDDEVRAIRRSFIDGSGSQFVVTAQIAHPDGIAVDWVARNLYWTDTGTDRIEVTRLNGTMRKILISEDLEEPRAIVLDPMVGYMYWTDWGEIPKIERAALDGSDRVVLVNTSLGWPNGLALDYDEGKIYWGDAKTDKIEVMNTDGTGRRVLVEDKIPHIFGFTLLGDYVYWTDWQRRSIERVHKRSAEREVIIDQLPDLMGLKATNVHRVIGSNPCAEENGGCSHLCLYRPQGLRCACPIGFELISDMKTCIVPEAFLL

[6] = target: T4, Kremen1 extracellular domain Fc fusion protein (human, UniProt Q96MU8 21-392); assay: BLI; pH 6.5
T4 chain: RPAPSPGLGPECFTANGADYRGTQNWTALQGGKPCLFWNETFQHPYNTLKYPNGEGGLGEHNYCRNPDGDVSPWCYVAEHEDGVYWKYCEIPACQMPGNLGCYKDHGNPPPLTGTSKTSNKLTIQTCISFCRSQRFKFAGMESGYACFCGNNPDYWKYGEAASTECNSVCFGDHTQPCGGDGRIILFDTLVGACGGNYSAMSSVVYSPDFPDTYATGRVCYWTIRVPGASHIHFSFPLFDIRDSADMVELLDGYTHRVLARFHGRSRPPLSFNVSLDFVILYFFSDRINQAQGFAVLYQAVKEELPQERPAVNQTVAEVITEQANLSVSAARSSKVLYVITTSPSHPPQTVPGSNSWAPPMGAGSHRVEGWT

[7] = target: T3, LRP6 E1E2-Fc (β-propeller domains 1 and …); assay: BLI; pH 6.5

Kd [2]: 64 to 77 nM
Kd [3]: 11000 to 30000 nM
B2: LRP6 E1E2-Fc (β-propeller domains 1 and 2 of low-density lipoprotein receptor-related protein 6, Fc fusion) (Fc fusion)
chain: APLLLYANRRDLRLVDATNGKENATIVVGGLEDAAAVDFVFSHGLIYWSDVSEEAIKRTEFNKTESVQNVVVSGLLSPDGLACDWLGEKLYWTDSETNRIEVSNLDGSLRKVLFWQELDQPRAIALDPSSGFMYWTDWGEVPKIERAGMDGSSRFIIINSEIYWPNGLTLDYEEQKLYWADAKLNFIHKSNLDGTNRQAVVKGSLPHPFALTLFEDILYWTDWSTHSILACNKYTGEGLREIHSDIFSPMDIHAFSQQRQPNATNPCGIDNGGCSHLCLMSPVKPFYQCACPTGVKLLENGKTCKDGATELLLLARRTDLRRISLDTPDFTDIVLQLEDIRHAIAIDYDPVEGYIYWTDDEVRAIRRSFIDGSGSQFVVTAQIAHPDGIAVDWVARNLYWTDTGTDRIEVTRLNGTMRKILISEDLEEPRAIVLDPMVGYMYWTDWGEIPKIERAALDGSDRVVLVNTSLGWPNGLALDYDEGKIYWGDAKTDKIEVMNTDGTGRRVLVEDKIPHIFGFTLLGDYVYWTDWQRRSIERVHKRSAEREVIIDQLPDLMGLKATNVHRVIGSNPCAEENGGCSHLCLYRPQGLRCACPIGFELISDMKTCIVPEAFLL

Kd [7]: 11100 nM
B4: N-terminal region of Dkk4 including CRD1, residues 19-97 (domain or fragment)
chain: LVLDFNNIRSSADLHGARKGSQCLSDTDCNTRKFCLQPRDEKPFCATCRGLRRRCQRDAMCCPGTLCVNDVCTTMEDAT

Kd [4]: ~12 nM
B5: full-length mature Dkk2 (Dickkopf 2), residues 38-259, His-tagged (natural protein, human, UniProt Q9UBU2 38-259, looked up)
chain: IKSSLGGETPGQAANRSAGMYQGLAFGGSKKGKNLGQAYPCSSDKECEVGRYCHSPHQGSSACMVCRRKKKRCHRDGMCCPSTRCNNGICIPVTESILTPHIPALDGTRHRDRNHGHYSNHDLGWQNLGRPHTKMSHIKGHEGDPCLRSSDCIEGFCCARHFWTKICKPVLHQGEVCTKQRKKGSHGLEIFQRCDCAKGLSCKVWKDATYSSKARLHVCQKI
notes: also called Dkk2FL

Continued, binder first:

B1: isolated Kremen1 extracellular domain, Fc tag removed (domain or fragment, human, UniProt Q96MU8 21-392, looked up)
chain: RPAPSPGLGPECFTANGADYRGTQNWTALQGGKPCLFWNETFQHPYNTLKYPNGEGGLGEHNYCRNPDGDVSPWCYVAEHEDGVYWKYCEIPACQMPGNLGCYKDHGNPPPLTGTSKTSNKLTIQTCISFCRSQRFKFAGMESGYACFCGNNPDYWKYGEAASTECNSVCFGDHTQPCGGDGRIILFDTLVGACGGNYSAMSSVVYSPDFPDTYATGRVCYWTIRVPGASHIHFSFPLFDIRDSADMVELLDGYTHRVLARFHGRSRPPLSFNVSLDFVILYFFSDRINQAQGFAVLYQAVKEELPQERPAVNQTVAEVITEQANLSVSAARSSKVLYVITTSPSHPPQTVPGSNSWAPPMGAGSHRVEGWT
notes: Kremen1 (Krm1), human, extracellular domain (kringle, WSC and CUB domains); Eluted in SEC as monomer (35 kDa) and noncovalent dimer (70 kDa); also called Krm1 ECD; isolated Krm1 ECD; source: prepared from Krm1 ECD-Fc by removal of the Fc tag, size-exclusion chromatography; host in the supporting material
stoichiometry N [1]: 2

Binder: B3
Kd [4]: 93 to 130 nM
Kd [5]: 48.7 nM and 55.6 nM
Kd [6]: 93.1 nM
